Usually Kd stands for the concentration at which binding is half-saturated.

Assay [1] concerns the target Flag-tagged EZH2, purified recombinant (human, UniProt Q15910 1-746). The experiment in a line: AlphaScreen or HTRF. Background: Bead proximity is the source of the signal in Alpha formats.
In assay [2] the target is GST-tagged EZH2, purified recombinant (human, UniProt Q15910 1-746). As to the kind of experiment: AlphaScreen or HTRF.
GST-tagged EZH2, purified recombinant, sequence (Q15910 whole entry): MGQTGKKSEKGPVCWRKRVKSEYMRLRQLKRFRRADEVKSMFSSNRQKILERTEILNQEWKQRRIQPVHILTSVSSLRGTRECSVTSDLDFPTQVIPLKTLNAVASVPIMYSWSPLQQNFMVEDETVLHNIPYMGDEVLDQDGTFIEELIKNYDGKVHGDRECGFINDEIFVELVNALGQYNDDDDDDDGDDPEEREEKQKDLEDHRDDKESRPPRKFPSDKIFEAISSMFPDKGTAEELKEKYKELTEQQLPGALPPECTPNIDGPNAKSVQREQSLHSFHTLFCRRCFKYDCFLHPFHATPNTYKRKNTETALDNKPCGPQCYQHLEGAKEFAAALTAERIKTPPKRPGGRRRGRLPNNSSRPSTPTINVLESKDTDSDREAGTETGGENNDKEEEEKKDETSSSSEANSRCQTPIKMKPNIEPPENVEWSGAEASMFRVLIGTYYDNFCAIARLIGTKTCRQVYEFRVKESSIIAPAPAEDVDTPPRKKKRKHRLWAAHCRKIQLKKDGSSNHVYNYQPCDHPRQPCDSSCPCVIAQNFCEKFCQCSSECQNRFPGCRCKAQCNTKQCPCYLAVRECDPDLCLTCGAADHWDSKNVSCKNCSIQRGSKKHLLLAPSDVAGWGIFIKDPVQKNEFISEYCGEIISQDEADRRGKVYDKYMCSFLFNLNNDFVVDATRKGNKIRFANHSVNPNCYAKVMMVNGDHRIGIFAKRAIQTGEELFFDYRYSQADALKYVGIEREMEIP

Flag-tagged EZH2, purified recombinant, sequence (Q15910 whole entry): as above

B1: unlabeled NOP56, purified recombinant (natural protein, human, UniProt O00567 1-594, looked up)
chain: MVLLHVLFEHAVGYALLALKEVEEISLLQPQVEESVLNLGKFHSIVRLVAFCPFASSQVALENANAVSEGVVHEDLRLLLETHLPSKKKKVLLGVGDPKIGAAIQEELGYNCQTGGVIAEILRGVRLHFHNLVKGLTDLSACKAQLGLGHSYSRAKVKFNVNRVDNMIIQSISLLDQLDKDINTFSMRVREWYGYHFPELVKIINDNATYCRLAQFIGNRRELNEDKLEKLEELTMDGAKAKAILDASRSSMGMDISAIDLINIESFSSRVVSLSEYRQSLHTYLRSKMSQVAPSLSALIGEAVGARLIAHAGSLTNLAKYPASTVQILGAEKALFRALKTRGNTPKYGLIFHSTFIGRAAAKNKGRISRYLANKCSIASRIDCFSEVPTSVFGEKLREQVEERLSFYETGEIPRKNLDVMKEAMVQAEEAAAEITRKLEKQEKKRLKKEKKRLAALALASSENSSSTPEECEEMSEKPKKKKKQKPQEVPQENGMEDPSISFSKPKKKKSFSKEELMSSDLEETAGSTSIPKRKKSTPKEETVNDPEEAGHRSGSKKKRKFSKEEPVSSGPEEAVGKSSSKKKKKFHKASQED
B1: the Kd in assay [1] amounted to 43.6 nM.

B2: unlabeled FBL, purified recombinant (natural protein, human, UniProt P22087 1-321, looked up)
chain: MKPGFSPRGGGFGGRGGFGDRGGRGGRGGFGGGRGRGGGFRGRGRGGGGGGGGGGGGGRGGGGFHSGGNRGRGRGGKRGNQSGKNVMVEPHRHEGVFICRGKEDALVTKNLVPGESVYGEKRVSISEGDDKIEYRAWNPFRSKLAAAILGGVDQIHIKPGAKVLYLGAASGTTVSHVSDIVGPDGLVYAVEFSHRSGRDLINLAKKRTNIIPVIEDARHPHKYRMLIAMVDVIFADVAQPDQTRIVALNAHTFLRNGGHFVISIKANCIDSTASAEAVFASEVKKMQQENMKPQEQLTLEPYERDHAVVVGVYRPPPKVKN
Consider B2, for which the Kd in assay [2] is 842 nM.
